Assay results taken from US12551573B2, “Compositions and methods for the targeting of PCSK9” (Scribe Therapeutics Inc., priority 2022, dated 2026).

These molecules were tested on HBEGF locus. Details: high-throughput screen of dXR repression of the HBEGF gene; abundance of each domain in the library before vs after diphtheria toxin selection; listed domains met p-value <0.01 and log2(fold change) >2.
Format: cell-based, human

Molecule | Log2 (fold change)
DOMAIN_24838 (protein, Pteropus alecto) FQASVSFKDVTVELTQEEWQQMGPLQRTLYRDVMLENYNNLVSVGSCIYKPELIFKLEQGEEPWLLEEEFSNQSYQVLEHY | 2.3323
DOMAIN_24903 (protein, listed as Ailuropoda melanoleuca) EMEPHSHAVPCQPSMSFKDVAVTFTQEEWGQLNLAQRRLYRNVTLETWSHLVSLGLLLSKPDVISWLEQGQDPWRAEQGPP | 3.0377
DOMAIN_25235 (protein, listed as Oryctolagus cuniculus) LPGLMAFEDVAVYFSQEEWGLLDAVQRALYRHVMLENFALVASLGLSASPPHVVIQLQRGEEPWVPSGLDMTSARNGHRRP | 3.6965
DOMAIN_22586 (protein, Nomascus leucogenys) FQASVSFQDVTVEFSQEEWQHLGPVERTLYRDVMLENYSHLVSVGYCFTKPELIFTLEQGEDPWLLEKEKGFLSRNSPEDS | 2.1811
DOMAIN_24615 (protein, listed as Colobus angolensis) TEGLVMFEDVAVYFSREEWGLLNVTQKGLYQDVMLENFALVSSLGLAPLRSPVFSQLENDEQLWVPSWVDETPVSRAEARR | 2.4075
DOMAIN_25671 (protein, listed as Muntiacus reevesi) GLLSFEDVALYFTREEWDTLDWAQKALYRDVMLDNYRHIVSLGFPFPKPEVICQLEQWEEPWTLDLPRAGTRKASGSACPD | 3.5244
DOMAIN_26044 (protein, listed as Geotrypetes seraphini) QMRLRFEDISVSFSQEEWAYLDEEQKELYREVMRDNYQTLISLGIGSPPVTPDIISCIEQGEEPYIRDEPGSEERKTGRSS | 2.8874
DOMAIN_26134 (protein, listed as Geotrypetes seraphini) AQVPVTFEDIAIYFSQEEWEYLDEGQKALYREVMKENYETLLLLGCPGLKPVIISSIEQGEEPCVRKLQERAELYPTAGDE | 2.4433
DOMAIN_25973 (protein, listed as Geotrypetes seraphini) ARAPVSFEEVAVYFSPEEWQTLQGWQKEMYRGVMRENYEIMLSLGYQFSKPEILLMMERGEEPCVEDCQRRIPVTFREKHL | 2.7804
DOMAIN_24446 (protein, listed as Propithecus coquereli) SQGLVSFKDVAVDFTQDEWQQLDPAQRTLYRDVMLENYSHLVSMGYPVSKPDVISKLEQGEDPWIIKRDISNWIYPDENQA | 3.6312
DOMAIN_26131 (protein, listed as Geotrypetes seraphini) AQMPVKFEDIAVSFSQEEWEYLNEEQKELYREVMEENYQTLISLGSPPVTPDIISHIERGEEPYIREEPGSEEREPGRSSC | 2.4087
DOMAIN_22919 (protein, listed as Colobus angolensis) KPGTVSFADVAVYFSREEWGYLRPAQRALYRDVMRETYCHLGALGVGGSKPALISWVEEEAELWDPAARDPEVTKGLTETD | 2.8609
DOMAIN_23018 (protein, listed as Colobus angolensis) AQMLVTFKDVAVTFTQEEWRQLDLTQRTLYREVMLETCGLLVSLGHRVPKPELVHLLEHGQELWTVKTGLSQPTCAGDRTQ | 3.4177
DOMAIN_23331 (protein, listed as Carlito syrichta) LQELLSFEDLSVDFTQKEWQLLNPYQKNLYKDVMLENYSSLVSLGYEVIKPDVIFKLEQGEEPWIRDAEMPSSPSLEVWQV | 2.8995
DOMAIN_26177 (protein, listed as Geotrypetes seraphini) ASAQVTFEDIAVSFCHEEWRYLDEGQKELYKEVMKENYETLISLGFLCEKPSLISKIEQEEDPCVRDQQNSRERRRRLKNF | 3.4467
DOMAIN_26268 (protein, listed as Geotrypetes seraphini) VARMQTRVTFDDIAVSFSQEEWEYLDEGQKELYREVMEENLELLTSLGSLVAQPEQMEELYMMDHHDMGLRGTLLSLCTED | 2.1404
DOMAIN_25682 (protein, listed as Rhinopithecus bieti) PRLPLTFEDVAIYFSEQEWQDLEAWQKELYKHVMRSNYETLVSLDDGLPKPELISWIEHGGEPFRNWRESQKSRNIICSSS | 2.5621

Molecule | Log2 (fold change)
DOMAIN_25654 (protein, Pteropus alecto) LWLPLTFEDIAIYFSEQEWQNLEAWQKDLYRNVMRANYEILVSLDDGLPKPELISHIEQGKELFWNLGETQKSGNIICSSA | 2.2996
DOMAIN_23281 (protein, listed as Colobus angolensis) CWGLLSFKDISMEFTWDEWQLLDSTQKYLYRDVILENYHNLISVGYHGTKPDLIFKLEQGEDPWIINAKISRQSRPDGWEE | 2.5048
DOMAIN_25565 (protein, listed as Muntiacus reevesi) LPLTFEDVAVYFSEQEWQNLEAWQKELYKQVMRANYEILLSLDNGLPKPELISWIEQGKELFKKWGESQQSRSIICSSADL | 2.6133
DOMAIN_23679 (protein, listed as Tupaia chinensis) MAFEDVAVYFSREEWELLDTAQRALYRHVMLENFALVASLGFSPSRPCVVIQLESGKEPWLHSGMDTTMSRHAHKRPSSGS | 3.7951
DOMAIN_26292 (protein, listed as Geotrypetes seraphini) QMQVTFEEVAISFSQEEWEYLDEEQKELYREVMKENYQTLISLATGSPTVTPKIIAHIERGEEPYIRGEPGSEERETGNSS | 2.4722
DOMAIN_23113 (protein, listed as Camelus ferus) GSVCEVSVSFEDVTVDFSREEWQHLDPAQRRLYWDVTLENYSHLCSVGYQVPKPEVIFKLEQGEGPWTLEEETPHQSCSGA | 3.4612
DOMAIN_24204 (protein, listed as Propithecus coquereli) SLGSVSFKDVTVDFSREEWQQLDLAQKSLYRDVTLENYFNLISVGCQVPKPEVIFNLEQGGELCVLDGGLSCQNCSDGDIG | 3.0779
DOMAIN_25686 (protein, listed as Panthera pardus) PRVSLTFEDVAVLFTRDEWRKLGPSERNLYQDVMLENYSNLVSLGLLFSKPKVISLLQQGEDPWKVEKESPGGPSLGYKSS | 2.8635
DOMAIN_22917 (protein, listed as Cervus elaphus) MAFEDVAVHFSQEEWGLLDTAQRSLYRRVMLENFALLASLGLSVSRPHVVTQLERGEEPWVLSGVDVTLPRDAQRRPHRGS | 3.8061
DOMAIN_23454 (protein, listed as Carlito syrichta) GKALLSFEDVAMYFTREEWNHLDWAQKDLYRDVMLENYMNMVLLGFQFPKPEVICQLENWDEPWILDLPRAGNRKASSSAC | 3.0632
DOMAIN_23093 (protein, listed as Propithecus coquereli) ESLTLEDVAVEFTWEEWQLLGPAQKDLYWDVMLENYNHLVSLGYQASKPDALSKLAQGEEPCVIEGKIQNRNCPGIRKADS | 3.2165
DOMAIN_26103 (protein, listed as Geotrypetes seraphini) EMRVMFEEITVSFSQEEWEYLDEGQKELYQEVMKENHETLIFLETNLQFVNPDMLSKIRRDSRMSRKRKATRSYAADDEAK | 2.5308
DOMAIN_25996 (protein, listed as Geotrypetes seraphini) QMPVKFEDIAVSFSQEEWEYLNEEQKELYREVMEENYQTLISLGTGSPPITPDIISHIERGEEPYIREEPGSEERGPVRSS | 3.984
DOMAIN_26180 (protein, listed as Geotrypetes seraphini) QMPVKFEDIAVSFSQEEWEYLNEEQKELYREVMEENYQTLISLGIGSPSVTPDIISHIEGGEEPYIREEPGSEEREPGRSS | 3.4522
DOMAIN_22778 (protein, listed as Saimiri boliviensis) SQGSVSFKDVTVDFTQEEWQQLDPAQKALYRDVMLENYCHFIAVGFHMTKPDMIRKLEQGEELWTQRIFPSYSYLEEDGKT | 3.1251
DOMAIN_23856 (protein, listed as Erinaceus europaeus) SLGMVSFDDVMVTFSLEEWQLLSTSQRTLYRTVMLDTYSSLAALGHCAVKPGVIIKLEQGAEPWMGAQAPPRSLSDPCGPS | 3.1072
DOMAIN_26012 (protein, listed as Geotrypetes seraphini) QMQVKFEDIAISFSQEEWEYLNEEQKELYREVMEENYQTLLSLATDSPTFTPKIISYIKRGEEPYIRGEPDSEERESGKSS | 2.3532

Same assay, conditions: high-throughput screen of dXR repression of the HBEGF gene; change in abundance of each domain in the library before and after diphtheria toxin selection

Molecule | Log2 (fold change)
DOMAIN_731 (protein, listed as Pan paniscus) MAGEAEAQLDPSLQGLVMFEDVTVYFSREEWGLLNVTQKGLYRDVMLENFALVSSLGLAPSRSPVFTQLEDDEQSWVPSWV | 2.1318
DOMAIN_938 (protein, listed as Pan paniscus) MPANEDAPQPGEHGSACEVSVSFEDVTVDFSREEWQQLDSTQRRLYQDVMLENYSHLLSVGFEVPKPEVIFKLEQGEGPWT | 2.2926
DOMAIN_749 (protein, listed as Pan paniscus) MGPQGARRQAFLAFGDVTVDFTQKEWRLLSPAQRALYREVTLENYSHLVSLGILHSKPELIRRLEQGEAPWGEERRRRPGP | 3.1162
